Reference: US20220089695A1

Key:
[1] = molecular target: SARS-CoV-2 Spike (S) protein, recombinant, construct not stated at the place (SARS-CoV-2) (UniProt P0DTC2)
[2] = molecular target: Liver and lymph node sinusoidal endothelial cell C-type lectin expressed on cells (human) (UniProt Q6UXB4)
[3] = molecular target: Dendritic cell-specific intercellular adhesion molecule-3-grabbing nonintegrin expressed on cells (human) (UniProt Q9NNX6)
[4] = molecular target: Liver/lymph node-specific intercellular adhesion molecule-3-grabbing integrin expressed on cells (human) (UniProt Q9H2X3)
Liver/lymph node-specific intercellular adhesion molecule-3-grabbing integrin expressed on cells (human), sequence (Q9H2X3 whole entry): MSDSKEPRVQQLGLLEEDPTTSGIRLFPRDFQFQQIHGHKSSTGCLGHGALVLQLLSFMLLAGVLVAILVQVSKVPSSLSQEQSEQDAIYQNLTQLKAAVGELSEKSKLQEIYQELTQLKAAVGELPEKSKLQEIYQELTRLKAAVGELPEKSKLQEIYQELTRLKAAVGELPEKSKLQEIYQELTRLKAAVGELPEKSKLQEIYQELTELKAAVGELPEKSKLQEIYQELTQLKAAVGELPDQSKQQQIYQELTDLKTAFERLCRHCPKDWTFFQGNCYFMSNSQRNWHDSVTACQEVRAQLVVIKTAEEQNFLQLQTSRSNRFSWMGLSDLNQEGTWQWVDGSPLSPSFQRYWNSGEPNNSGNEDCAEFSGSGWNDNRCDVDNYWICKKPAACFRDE

[5] = molecular target: Tweety Family Member 2 expressed on cells (human) (UniProt Q9BSA4)
Tweety Family Member 2 expressed on cells (human), sequence (Q9BSA4 whole entry, the tested form may be a part): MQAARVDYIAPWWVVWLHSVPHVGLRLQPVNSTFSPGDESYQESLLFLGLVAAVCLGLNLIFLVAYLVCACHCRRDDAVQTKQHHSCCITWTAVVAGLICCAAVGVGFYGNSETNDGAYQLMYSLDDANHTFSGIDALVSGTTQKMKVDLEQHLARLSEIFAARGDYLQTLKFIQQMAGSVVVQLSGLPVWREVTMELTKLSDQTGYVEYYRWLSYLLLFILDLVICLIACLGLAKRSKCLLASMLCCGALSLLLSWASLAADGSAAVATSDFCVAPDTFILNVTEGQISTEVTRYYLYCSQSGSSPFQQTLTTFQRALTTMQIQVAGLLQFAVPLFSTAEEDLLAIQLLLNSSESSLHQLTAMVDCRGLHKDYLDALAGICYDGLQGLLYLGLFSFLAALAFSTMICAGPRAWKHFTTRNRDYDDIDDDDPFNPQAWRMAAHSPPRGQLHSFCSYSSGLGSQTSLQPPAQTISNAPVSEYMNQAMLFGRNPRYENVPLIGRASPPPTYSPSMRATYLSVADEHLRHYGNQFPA

[6] = molecular target: C-type lectin domain family 10 member A expressed on cells (human) (UniProt Q8IUN9)
C-type lectin domain family 10 member A expressed on cells (human), sequence (Q8IUN9 whole entry, the tested form may be a part): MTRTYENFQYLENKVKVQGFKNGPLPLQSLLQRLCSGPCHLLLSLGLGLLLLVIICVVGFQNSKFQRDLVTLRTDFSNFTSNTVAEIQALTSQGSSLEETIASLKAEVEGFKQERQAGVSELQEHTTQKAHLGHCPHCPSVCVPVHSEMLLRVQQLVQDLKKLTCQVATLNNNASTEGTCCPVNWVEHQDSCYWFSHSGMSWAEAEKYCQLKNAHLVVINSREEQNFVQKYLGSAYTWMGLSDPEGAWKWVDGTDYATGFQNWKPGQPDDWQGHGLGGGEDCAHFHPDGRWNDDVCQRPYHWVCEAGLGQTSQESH

[7] = molecular target: Asialoglycoprotein Receptor 1 expressed on cells (human) (UniProt P07306)
Asialoglycoprotein Receptor 1 expressed on cells (human), sequence (P07306 whole entry): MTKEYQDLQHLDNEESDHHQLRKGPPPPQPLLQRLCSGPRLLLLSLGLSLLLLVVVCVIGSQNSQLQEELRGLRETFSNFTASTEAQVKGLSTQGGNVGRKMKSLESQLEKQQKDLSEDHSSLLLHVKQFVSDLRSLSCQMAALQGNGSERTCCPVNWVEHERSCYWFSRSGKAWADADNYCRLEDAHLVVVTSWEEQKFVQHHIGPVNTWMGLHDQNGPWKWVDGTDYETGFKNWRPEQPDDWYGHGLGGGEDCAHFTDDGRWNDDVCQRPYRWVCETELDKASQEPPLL

Dendritic cell-specific intercellular adhesion molecule-3-grabbing nonintegrin expressed on cells (human), sequence (Q9NNX6 whole entry): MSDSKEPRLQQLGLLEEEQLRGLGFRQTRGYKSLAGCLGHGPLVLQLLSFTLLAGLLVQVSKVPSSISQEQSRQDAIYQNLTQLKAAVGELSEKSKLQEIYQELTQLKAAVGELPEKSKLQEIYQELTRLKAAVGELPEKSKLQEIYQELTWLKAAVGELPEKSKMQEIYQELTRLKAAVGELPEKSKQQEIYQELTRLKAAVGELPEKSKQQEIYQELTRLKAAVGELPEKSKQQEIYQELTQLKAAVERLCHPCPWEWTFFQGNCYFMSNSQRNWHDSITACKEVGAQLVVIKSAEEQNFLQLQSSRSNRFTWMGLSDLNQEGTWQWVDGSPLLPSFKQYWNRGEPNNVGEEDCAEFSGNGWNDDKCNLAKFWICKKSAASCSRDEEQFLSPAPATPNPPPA
Liver and lymph node sinusoidal endothelial cell C-type lectin expressed on cells (human), sequence (Q6UXB4 whole entry): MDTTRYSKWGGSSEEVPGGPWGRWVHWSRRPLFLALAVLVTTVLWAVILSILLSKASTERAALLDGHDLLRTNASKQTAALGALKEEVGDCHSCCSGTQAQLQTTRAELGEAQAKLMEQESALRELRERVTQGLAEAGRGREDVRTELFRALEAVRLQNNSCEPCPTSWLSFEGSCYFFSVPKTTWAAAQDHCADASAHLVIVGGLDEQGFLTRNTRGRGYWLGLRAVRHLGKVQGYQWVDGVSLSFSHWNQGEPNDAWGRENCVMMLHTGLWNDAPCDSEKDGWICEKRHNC

ACE2-Fc + L-SIGN-Fc + ASGR1-Fc showed a blocking of S protein binding (heat-map cell) [1] of 33.7%.
With “SARS-CoV-2 S protein displayed on lentiviral (HIV-GFP) pseudovirus (from UniProt P0DTC2 14-1273) (other; other documents disagree on this pair)” the cells in the Anti-SARS-CoV-2 S protein (APC) gate [2] was 1.7%, the cells in the Anti-SARS-CoV-2 S protein (APC) gate [3] was 20.8% and the cells in the Anti-SARS-CoV-2 S protein (APC) gate [4] was 31.7%.
Substance Fc Control has a blocking of S protein binding (heat-map cell) [1] of 0%.
For “SARS-CoV-2 S protein displayed on lentiviral (HIV-GFP) pseudovirus (from UniProt P0DTC2 14-1273)”, the cells in the Anti-SARS-CoV-2 S protein (APC) gate [5] was 1.61%, the cells in the Anti-SARS-CoV-2 S protein (APC) gate [6] was 3.2% and the cells in the Anti-SARS-CoV-2 S protein (APC) gate [7] was 47.6%.
